Columns and labels:
[1] = target: SrpI encapsulin shell protein with C-terminal 6X-His tag, from inclusion bodies, refolded (Synechococcus elongatus PCC 7942) (UniProt Q55032); assay: negative stain TEM; apo-SrpI and holo-SrpI (CyD loaded by refolding) at 300 nM in 50 mM CAPS pH 10, 250 mM arginine, 150 mM NaCl; uranyl formate; 3D reconstruction without symmetry, ~18 Å; difference map
[2] = target: T1, encapsulated CyD (CyD-loaded SrpI encapsulin) (Synechococcus elongatus, UniProt Q8KUU5); assay: coupled alanine dehydrogenase assay, NADH fluorescence; assay type: biochemical; settings: 25 mM Tris-HCl pH 8, 150 mM NaCl, 5 mM NAD+, 25 °C, 200 nM enzyme; CyD encapsulated in SrpI shell
T1 construct: E. coli; 1-2 CyD copies seen in difference map; with Type 2A encapsulin shell protein SrpI
T1 sequence (Q8KUU5 1-626): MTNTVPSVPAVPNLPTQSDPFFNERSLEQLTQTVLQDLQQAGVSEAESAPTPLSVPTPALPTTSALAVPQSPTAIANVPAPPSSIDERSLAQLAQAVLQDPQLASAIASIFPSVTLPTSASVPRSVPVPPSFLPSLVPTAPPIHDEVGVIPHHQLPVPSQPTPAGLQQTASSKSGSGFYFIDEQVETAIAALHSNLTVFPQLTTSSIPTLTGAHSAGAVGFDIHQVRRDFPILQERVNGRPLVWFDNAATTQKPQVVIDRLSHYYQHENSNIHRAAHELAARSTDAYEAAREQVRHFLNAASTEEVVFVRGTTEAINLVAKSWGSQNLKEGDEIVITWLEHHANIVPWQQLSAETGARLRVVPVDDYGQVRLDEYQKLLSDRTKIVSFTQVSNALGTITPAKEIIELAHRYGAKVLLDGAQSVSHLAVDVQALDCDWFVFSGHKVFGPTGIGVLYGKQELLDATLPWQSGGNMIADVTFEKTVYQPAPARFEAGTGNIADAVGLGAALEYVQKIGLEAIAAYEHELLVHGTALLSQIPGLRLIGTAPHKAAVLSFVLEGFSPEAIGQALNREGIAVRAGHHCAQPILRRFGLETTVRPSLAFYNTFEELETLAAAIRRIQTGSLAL
T1 sequence (Q55032 1-306 partner): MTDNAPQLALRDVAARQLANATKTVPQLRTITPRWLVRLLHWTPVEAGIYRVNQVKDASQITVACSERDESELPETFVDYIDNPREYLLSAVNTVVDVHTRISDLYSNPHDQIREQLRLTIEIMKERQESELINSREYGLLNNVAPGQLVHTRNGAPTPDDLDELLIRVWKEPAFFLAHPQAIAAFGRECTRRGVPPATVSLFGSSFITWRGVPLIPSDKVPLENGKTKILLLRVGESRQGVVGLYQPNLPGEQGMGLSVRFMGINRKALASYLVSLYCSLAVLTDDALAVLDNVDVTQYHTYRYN

[3] = target: T2, CyD (cysteine desulfurase, unencapsulated) (Synechococcus elongatus, UniProt Q8KUU5); assay: as above; assay type: biochemical; settings: 25 mM Tris-HCl pH 8, 150 mM NaCl, 5 mM NAD+, 25 °C, 200 nM enzyme
T2 construct: full length incl; 225-residue N-terminal domain; N-terminal His-SUMO tag cut off; E. coli BL21(DE3) LOBSTR; 68 kDa; PLP enzyme
T2 sequence (Q8KUU5 1-626): T1 sequence (Q8KUU5 1-626)

[4] = target: T3, ΔNTD-CyD (unencapsulated) (Synechococcus elongatus, UniProt Q8KUU5); assay: as above; assay type: biochemical; settings: 25 mM Tris-HCl pH 8, 150 mM NaCl, 5 mM NAD+, 25 °C, 200 nM enzyme
T3 construct: N-terminal His-SUMO tag cut off; E. coli; 45 kDa
T3 sequence (Q8KUU5 226-626 limits assumed): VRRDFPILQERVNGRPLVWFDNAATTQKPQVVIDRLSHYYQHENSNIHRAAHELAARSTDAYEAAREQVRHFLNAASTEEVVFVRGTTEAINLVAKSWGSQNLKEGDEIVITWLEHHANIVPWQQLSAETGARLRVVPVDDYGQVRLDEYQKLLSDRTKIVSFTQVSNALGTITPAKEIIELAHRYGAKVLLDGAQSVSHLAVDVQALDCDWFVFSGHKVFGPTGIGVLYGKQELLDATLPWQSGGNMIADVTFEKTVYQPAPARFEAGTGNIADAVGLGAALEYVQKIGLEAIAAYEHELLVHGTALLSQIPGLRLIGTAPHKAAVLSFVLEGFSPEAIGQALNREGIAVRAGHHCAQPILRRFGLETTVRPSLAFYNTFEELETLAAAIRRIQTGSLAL

[5] = target: T4, SrpI encapsulin shell protein with C-terminal 6X-His tag, from inclusion bodies, refolded (Synechococcus elongatus (strain ATCC …, UniProt Q55032)); assay: in vitro cargo loading (co-refolding), SEC co-elution and SDS-PAGE/sfGFP fluorescence; shell unfolded in GuHCl and refolded by dilution in the presence of cargo (encapsulation; CAPS pH 10, 250 mM arginine, glycerol, DTT); NTD fused to sfGFP
T4 chain: T1 sequence (Q55032 1-306 partner)

[6] = target: the molecule itself; assay: cryo-EM structure; purified holo-SrpI, 2 mg/mL in 50 mM CAPS pH 10, 250 mM arginine, 150 mM NaCl, 0.05% NP-40; 2.2 Å; symmetry expansion and focused classification for cargo density
[7] = target: the molecule itself; assay: non-denaturing SDS-PAGE; purified encapsulin, samples not heat-denatured compared with samples heated at 95°C for 15 min

## Full-length cysteine desulfurase CyD (Synpcc7942_B2661), purified (enzyme)
[1]
  copies of CyD in the difference density of the loaded compartment: 1 to 2 copies

## N[C@@H](CS)C(=O)O [L-cysteine]
[2]
  coupled alanine dehydrogenase assay, NADH fluorescence: the encapsulated CyD was roughly sevenfold more active than unencapsulated CyD
[3]
  coupled alanine dehydrogenase assay, NADH fluorescence: Unencapsulated CyD was active towards a cysteine substrate
[4]
  coupled alanine dehydrogenase assay, NADH fluorescence: the N-terminal domain had no effect on catalytic activity

B1: CyD N-terminal domain (residues 1–225) fused to sfGFP (protein)
chain: MTNTVPSVPAVPNLPTQSDPFFNERSLEQLTQTVLQDLQQAGVSEAESAPTPLSVPTPALPTTSALAVPQSPTAIANVPAPPSSIDERSLAQLAQAVLQDPQLASAIASIFPSVTLPTSASVPRSVPVPPSFLPSLVPTAPPIHDEVGVIPHHQLPVPSQPTPAGLQQTASSKSGSGFYFIDEQVETAIAALHSNLTVFPQLTTSSIPTLTGAHSAGAVGFDIHQ
[5]
  binding result: binds

B2: SrpI encapsulin shell protein with C-terminal 6X-His tag, from inclusion bodies, refolded (natural protein, Synechococcus elongatus PCC 7942)
chain: T1 sequence (Q55032 1-306 partner)
notes: monomer 35 kDa; T = 1 icosahedral capsid of 60 subunits by cryo-EM; also called apo-SrpI; holo-SrpI (when loaded with CyD); copies: 60
[6]
  stoichiometry N: 60 subunits

B3: Thermotoga maritima Family 1 encapsulin shell protein (natural protein)
chain: MEFLKRSFAPLTEKQWQEIDNRAREIFKTQLYGRKFVDVEGPYGWEYAAHPLGEVEVLSDENEVVKWGLRKSLPLIELRATFTLDLWELDNLERGKPNVDLSSLEETVRKVAEFEDEVIFRGCEKSGVKGLLSFEERKIECGSTPKDLLEAIVRALSIFSKDGIEGPYTLVINTDRWINFLKEEAGHYPLEKRVEECLRGGKIITTPRIEDALVVSERGGDFKLILGQDLSIGYEDREKDAVRLFITETFTFQVVNPEALILLKF
notes: Family 1 encapsulin shell protein, Thermotoga maritima; also called Tm Enc; T. maritima encapsulin; source: purified
[7]
  binding result: binds

Reference: PMC8049743, “Discovery and characterization of a novel family of prokaryotic nanocompartments involved in sulfur metabolism” (eLife, 2021)
